Source: patent US20120301476A1 (TORAY INDUSTRIES, published 2012)

T1: human CAPRIN-1 protein on the cell surfaces of human cancer cell lines and in human cancer tissues (human, UniProt Q14444 2-709)
T1 sequence (looked up): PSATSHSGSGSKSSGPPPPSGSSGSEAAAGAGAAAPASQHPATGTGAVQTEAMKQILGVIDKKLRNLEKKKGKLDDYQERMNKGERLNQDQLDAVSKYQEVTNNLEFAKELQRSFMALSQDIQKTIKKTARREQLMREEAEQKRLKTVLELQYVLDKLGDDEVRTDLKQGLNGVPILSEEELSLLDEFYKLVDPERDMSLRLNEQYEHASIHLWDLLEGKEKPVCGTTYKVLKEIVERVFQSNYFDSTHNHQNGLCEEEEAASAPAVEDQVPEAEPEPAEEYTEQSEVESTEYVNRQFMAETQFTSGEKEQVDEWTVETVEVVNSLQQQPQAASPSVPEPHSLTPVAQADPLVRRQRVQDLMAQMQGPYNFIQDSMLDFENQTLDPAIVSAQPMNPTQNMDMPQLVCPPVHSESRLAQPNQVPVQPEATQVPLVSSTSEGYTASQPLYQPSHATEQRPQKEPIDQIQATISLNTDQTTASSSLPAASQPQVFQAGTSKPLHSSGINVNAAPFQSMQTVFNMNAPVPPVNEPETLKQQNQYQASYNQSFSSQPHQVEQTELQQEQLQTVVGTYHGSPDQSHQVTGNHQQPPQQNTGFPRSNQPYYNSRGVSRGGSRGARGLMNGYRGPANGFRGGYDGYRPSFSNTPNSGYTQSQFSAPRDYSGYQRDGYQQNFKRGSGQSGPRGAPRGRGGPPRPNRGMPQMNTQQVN

T2: peptide of SEQ ID NO: 69 (partial sequence in the polypeptide of SEQ ID NO: 37) (human)
T2 peptide: QQPQAASPSVPE

T3: peptide of SEQ ID NO: 70 (partial sequence in the polypeptide of SEQ ID NO: 37) (human)
T3 peptide: FTSGEKEQVDEW

B1: anti-CAPRIN-1 mouse monoclonal antibody #4 (antibody, V domains shown)
VH: GAELVRSGASVKMSCKASGYSFTDYNMYWVKQTPGQGLEWIGYIYPGNGGTNYNQKFKGKATLTADTSSSTAYMQISSLTSEDSAVYFCARDYDDGGYAMDYWGQGTTVTVSS
VL: DIQMTQSPASLSASVGETVTITCRASGNIHNYLTWYQQKQGKSPQLLVYNAKTLADGVPSRFSGSGSGTQYSLKINRLQPEDFGSYYCQHFWNIPWTFGGGTKLNSR
B2: anti-CAPRIN-1 mouse monoclonal antibody #5 (antibody, V domains shown)
VH: B1 VH
VL: B1 VL
notes: Mouse hybridoma antibody; detected with anti-mouse IgG
B3: anti-CAPRIN-1 mouse monoclonal antibody #6 (antibody, V domains shown)
VH: DAELVKPGASVKISCKASGYTFTDHSIHWVQQKPEQGLEWIGYISPGNGNIKYNEKFKGKATLTADKSSSTAYMQLNSLTSEDSAVYFCKRSLGRGGPYYFDYWGQGTTVTVSS
VL: DIVLTQAAPSLPVTPGESVSISCRSSKSLLHSNGNTYLYWFLQRPGQSPQLLIYRMSNLASGVPDRFSGSGSGTAFTLRISRVEAEDVGVYYCMQHREYPVTFGSGPN
notes: as for B2
B4: anti-CAPRIN-1 mouse monoclonal antibody #3 (antibody, V domains shown)
VH: GGGLVKPGGSLKLSCAASGFTFSSYGMSWVRQTPEKRLEWVATISSGGSYTYYPDSVKGRFTISRDNAKNTLYLQMSSLRSEDTAMYYCASLASYYFDYWGQGTTLTVSS
VL: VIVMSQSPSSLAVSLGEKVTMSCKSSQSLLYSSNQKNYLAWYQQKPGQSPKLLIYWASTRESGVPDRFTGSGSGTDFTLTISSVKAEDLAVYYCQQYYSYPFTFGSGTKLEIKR

Experiments:
[1] = target: T1, human CAPRIN-1 protein on the cell …; experiment: cell-based or functional assay
[2] = target: T1, human CAPRIN-1 protein on the cell …; experiment: flow cytometry on the listed human cancer cell lines, culture supernatant, against negative control
Description: 10⁶ cells of each cell line were centrifuged in a 1.5 ml microcentrifuge tube. Each cell culture supernatant (100 μl) of CHO-K1 cells containing #1 obtained in (2) above and hybridomas producing #2, #3, #4, #5, and #6 obtained in Example 3 was added and then left to stand on ice for 1 hour. After washing with PBS, a FITC-labeled goat anti-human IgG (H+L) antibody (SouthernBiotech) and a FITC-labeled anti-mouse IgG (H+L) antibody (Invitrogen) diluted 500-fold with PBS containing 0.1% FBS were added and then left to stand on ice for 1 hour. After washing with PBS, fluorescence intensity was measured using a FACS Calibur (Becton, Dickinson). Meanwhile, procedures similar to the above were performed using a culture supernatant of CHO-K1 cells into which no antibody gene had been introduced and medium for culturing hybridomas, so that a negative control sample was prepared. […] Specifically, when the antibody #1 was used, fluorescence intensity was enhanced to 4700% in the case of SK-BR-3 and 5500% in the case of MDA-MB-231V. Also, when the antibodies #2, #3, #4, #5, and #6 were used, fluorescence intensity was enhanced. […] The percentage of enhancement in the above fluorescence intensity was expressed as percentage of increase in mean fluorescence intensity (MFI level) in each type of cell and calculated by the following formula.

[3] = target: T2, peptide of SEQ ID NO: 69 (partial …); experiment: ELISA on immobilised synthetic peptides
Description: (§1) Each peptide was dissolved in 0.1M sodium carbonate buffer (pH 9.6) at a concentration of 30 μg/ml, added to a 96-well plate (Nunc, Product No. 436006) at 100 μl per well, and then left to stand at 4° C. overnight. The solution was discarded, 10 mM ethanolamine/0.1M sodium carbonate buffer (PH 9.6) was added at 200 μl per well, and then the plate was left to stand at room temperature for 1 hour. The solution was discarded, the plate was washed twice with PBS (PBST) containing 0.5% Tween20, so that the plate with each peptide immobilized thereto was prepared.
(§2) A cell culture supernatant containing the human-chicken chimeric monoclonal antibody (#1) and the mouse monoclonal antibodies (#2, #3, #4, #5, and #6) obtained in Example 4 (2) was added to the plate at 50 μl per well. After 1 hour of shaking at room temperature, the solution was removed, and then the plate was washed three times with PBST. Next, an HRP-labeled anti-human IgG (Invitrogen) antibody diluted 3000- to 4000-fold with PBST (a secondary antibody solution) was added to each well of the human-chicken chimeric monoclonal antibody and an HRP-labeled anti-mouse IgG (Invitrogen) antibody diluted 3000- to 4000-fold with PBST (a secondary antibody solution) was added to each well of the mouse monoclonal antibody, at 50 μl per well, and then the solution was removed, followed by six times of washing with PBST.
(§3) A TMB substrate solution (Thermo) was added at 100 μl per well, and the plate was left to stand for 15 to 30 minutes for coloring reaction. After color development, 1N sulfuric acid was added at 100 μl per well to stop the reaction and then absorbances at 450 nm and 595 nm were measured using an absorption spectrometer. As a result, the polypeptide of SEQ ID NO: 37 was identified as a CAPRIN-1 partial sequence that is recognized by all of the anti-CAPRIN-1 monoclonal antibodies #1 to #6. Furthermore, the peptide of SEQ ID NO: 69 was identified as a partial sequence in the above polypeptide of SEQ ID NO: 37, which is recognized by the monoclonal antibodies #1, #4, and #5. […]

[4] = target: T3, peptide of SEQ ID NO: 70 (partial …); experiment: ELISA on immobilised synthetic peptides
Description: as §1, §2, §3

| percentage of increase in mean fluorescence intensity [2] [%] | binding result [3] | binding result [4] | Binder | cytotoxic activity (ADCC) against A549 [1] [%] | cytotoxic activity (ADCC) against ACHN [1] [%] | cytotoxic activity (ADCC) against AML5 [1] [%] | cytotoxic activity (ADCC) against Caki-1 [1] [%] | cytotoxic activity (ADCC) against KYSE180 [1] [%] | cytotoxic activity (ADCC) against MDA-MB-157 [1] [%] | cytotoxic activity (ADCC) against MNK28 [1] [%] | cytotoxic activity (ADCC) against MNK45 [1] [%] | cytotoxic activity (ADCC) against QG56 [1] [%] | cytotoxic activity (ADCC) against Ramos [1] [%] | cytotoxic activity (ADCC) against SW480 [1] [%] | cytotoxic activity (ADCC) against SW756 [1] [%] | cytotoxic activity (ADCC) against T24 [1] [%] | cytotoxic activity (ADCC) against T98G [1] [%] | cytotoxic activity (ADCC) against U373 [1] [%] |
| --- | --- | --- | --- | --- | --- | --- | --- | --- | --- | --- | --- | --- | --- | --- | --- | --- | --- | --- |
| ≥ 20 |  |  | B1 | ≥ 24 | ≥ 14 | ≥ 10 | ≥ 23 | ≥ 22 | 31 | ≥ 15 | ≥ 10 | ≥ 20 | ≥ 10 | ≥ 17 | ≥ 16 | ≥ 18 | ≥ 12 | ≥ 16 |
| ≥ 20 | binds |  | B2 | ≥ 24 | ≥ 14 | ≥ 10 | ≥ 23 | ≥ 22 | 30.9 | ≥ 15 | ≥ 10 | ≥ 20 | ≥ 10 | ≥ 17 | ≥ 16 | ≥ 18 | ≥ 12 | ≥ 16 |
| ≥ 20 |  | binds | B3 | ≥ 24 | ≥ 14 | ≥ 10 | ≥ 23 | ≥ 22 | 19 | ≥ 15 | ≥ 10 | ≥ 20 | ≥ 10 | ≥ 17 | ≥ 16 | ≥ 18 | ≥ 12 | ≥ 16 |
| ≥ 20 |  |  | B4 | ≥ 24 | ≥ 14 | ≥ 10 | ≥ 23 | ≥ 22 | 32.4 | ≥ 15 | ≥ 10 | ≥ 20 | ≥ 10 | ≥ 17 | ≥ 16 | ≥ 18 | ≥ 12 | ≥ 16 |
